Laboratory results published in US20250228954A1, “Designing Antisense Oligonucleotide Delivery Peptides by Interpretable Machine Learning” (Sarepta Therapeutics, Inc., priority 2020, published 2025).

Assays:
HeLa 654 cells [1] = test: Cytotoxicity by gated cell count and propidium iodide staining in flow cytometry; assay type: cell-based, human; settings: at the concentrations tested in dose-response, 22 h
From the text: The different modules led to several noticeable trends in the level of cellular fluorescence (FIG. 6). When module 2 was DPV6, the overall construct consistently led to high fluorescence, regardless of which peptides were placed in module 3 and 4. However, when either pVEC or TP10 was placed in module 2, minor cellular fluorescence was observed. A gated cell count was used during flow cytometry as an indirect read-out to control for the toxicity of the compounds. Highly toxic compounds led to a reduction in overall cell count and non-viable cells were gated out based upon propidium iodide staining. In this experiment, it was observed that when the module 3 peptide was the nuclear localization sequence KRVK, lower cell counts were consistently observed.
In the same format as described above, HeLa 654 cells were treated with varying concentrations of Mach 2, 3, 4, and 7 for 22 hours and analyzed by flow cytometry.
(§1) HeLa 654 cells were maintained in MEM supplemented with 10% (v/v) fetal bovine serum (FBS) and 1% (v/v) penicillin-streptomycin at 37° C. and 5% CO2. Eighteen hours prior to treatment, the cells were plated at a density of 5,000 cells per well in a 96-well plate in MEM supplemented with 10% FBS and 1% penicillin-streptomycin. The day of the experiment, the 384 well plate containing the crude reaction mixtures in DMSO was diluted to 100 μM by the addition of 16.8 μL of PBS to the 3.2 μL reaction mixture. Then, each construct was diluted to 5 μM in MEM supplemented with 10% FBS and 1% penicillin-streptomycin. Cells were incubated with each conjugate at a concentration of 5 μM for 22 hours at 37° C. and 5% CO2. Next, the treatment media was aspirated the cells were incubated with Trypsin-EDTA 0.25% for 15 min at 37° C. and 5% CO2, washed 1× with PBS, and resuspended in PBS with 2% FBS and 2 μg/mL propidium iodide. Flow cytometry analysis was carried out on a BD LSRII flow cytometer. Gates were applied to the data to ensure that cells that were highly positive for propidium iodide or had forward/side scatter readings that were sufficiently different from the main cell population were excluded. Each sample was capped at 5,000 gated events.

HeLa 654 cells [2] = test: HeLa-654 eGFP assay (corrective splicing / exon skipping by PMO IVS2-654); assay type: cell-based, human; settings: eGFP fluorescence of PMO-peptide conjugate relative to unconjugated PMO; 5 μM, 22 h
Experimental: With the 36 constructs synthesized, the ability to modulate PMO activity using the modified HeLa cell assay was tested. The HeLa-654 cells were stably transfected to express a nonfluorescent eGFP protein. The eGFP gene is interrupted by a mutant intron from the human β-globin gene (IVS2-654). The insertion alters pre-mRNA splicing to cause retention of a fragment in the mature mRNA that results in a nonfluorescent protein. PMO IVS2-654 base-pairs with the B-globin insertion, modifies mRNA splicing, and thereby leads to expression of fluorescent eGFP.
For treatment, the crude reaction mixture was diluted to 5 μM in media. The concentration of the modular construct was calculated based on the original concentration of the module 1-2 conjugate mixed in the reaction. Using media containing 10% fetal bovine serum (FBS), the cells were treated with each construct for 22 hours, after which the cellular fluorescence was measured by flow cytometry.
From the lists of hundreds of predicted peptide sequences, twenty candidates were selected that varied in length, charge, and predicted activity to synthesize and test. Just as with the PMO-peptide library, the PMO-Mach constructs were first tested for PMO delivery in the HeLa 654 assay at 5 μM in complete media for 22 hours and analyzed by flow cytometry (FIG. 14). Experiments were conducted using three technical triplicates and two or three biological replicates.
as §1
Analysis was conducted using Graphpad Prism 7. For each sample, the mean fluorescence intensity and the number of gated cells was measured (FIGS. 8 and 9) and the intensity multiplied by the cell number was calculated (FIG. 7).

Row | SMILES | cytotoxicity as determined by cell count and PI staining (HeLa 654 cells [1]) | FOLD OVER PMO (HeLa 654 cells [2])
1 | CSCC[C@H](NC(=O)[C@H](CCCCN)NC(=O)[C@H](CC(C)C)NC(=O)[C@H](CC(N)=O)NC(=O)[C@H](CC(N)=O)NC(=O)[C@H](CCCCN)NC(=O)[C@H](CC(C)C)NC(=O)[C@H](CC(N)=O)NC(=O)[C@H](CCCCN)NC(=O)[C@H](CCCCN)NC(=O)[C@H](CCCCN)NC(=O)[C@H](C)NC(=O)[C@H](CC(N)=O)NC(=O)[C@H](CCCNC(=N)N)NC(=O)[C@H](CC(C)C)NC(=O)[C@@H]1CCCN1C(=O)[C@@H]1CCCN1C(=O)CCCCn1nnc2c1-c1ccccc1N(C(=O)CCCCC(=O)N1C[C@@H](COP(=O)(N(C)C)N3C[C@@H](COP(=O)(N(C)C)N4C[C@@H](COP(=O)(N(C)C)N5C[C@@H](COP(=O)(N(C)C)N6C[C@@H](COP(=O)(N(C)C)N7C[C@@H](COP(=O)(N(C)C)N8C[C@@H](COP(=O)(N(C)C)N9C[C@@H](COP(=O)(N(C)C)N%10C[C@@H](COP(=O)(N(C)C)N%11C[C@@H](COP(=O)(N(C)C)N%12C[C@@H](COP(=O)(N(C)C)N%13C[C@@H](COP(=O)(N(C)C)N%14C[C@@H](COP(=O)(N(C)C)N%15C[C@@H](COP(=O)(N(C)C)N%16C[C@@H](COP(=O)(N(C)C)N%17C[C@@H](COP(=O)(N(C)C)N%18C[C@@H](COP(=O)(N(C)C)N%19C[C@@H](COP(=O)(N(C)C)N%20CCN(C(=O)OCCOCCOCCO)CC%20)O[C@@H](n%20cnc%21c(=O)[nH]c(N)nc%21%20)C%19)O[C@@H](n%19ccc(N)nc%19=O)C%18)O[C@@H](n%18cc(C)c(=O)[nH]c%18=O)C%17)O[C@@H](n%17cnc%18c(N)ncnc%18%17)C%16)O[C@@H](n%16cc(C)c(=O)[nH]c%16=O)C%15)O[C@@H](n%15cc(C)c(=O)[nH]c%15=O)C%14)O[C@@H](n%14cnc%15c(N)ncnc%15%14)C%13)O[C@@H](n%13ccc(N)nc%13=O)C%12)O[C@@H](n%12ccc(N)nc%12=O)C%11)O[C@@H](n%11cc(C)c(=O)[nH]c%11=O)C%10)O[C@@H](n%10cc(C)c(=O)[nH]c%10=O)C9)O[C@@H](n9cnc%10c(N)ncnc%109)C8)O[C@@H](n8cnc9c(N)ncnc98)C7)O[C@@H](n7ccc(N)nc7=O)C6)O[C@@H](n6ccc(N)nc6=O)C5)O[C@@H](n5ccc(N)nc5=O)C4)O[C@@H](n4cnc5c(N)ncnc54)C3)O[C@@H](n3cnc4c(=O)[nH]c(N)nc43)C1)Cc1ccccc1-2)C(=O)N[C@@H](CC(=O)O)C(=O)N1CCC[C@H]1C(=O)N[C@@H](CCCCN)C(=O)N[C@@H](Cc1ccccc1)C(=O)N[C@H](C(=O)N[C@@H](CCCCN)C(=O)N[C@@H](CCCCN)C(=O)N[C@H](C(=O)N[C@@H](CCCCN)C(=O)N[C@@H](CCC(N)=O)C(=O)NCC(=O)N[C@@H](C)C(=O)N[C@@H](CC(C)C)C(=O)N[C@@H](CCCCN)C(=O)N[C@@H](CC(C)C)C(=O)N[C@@H](CC(N)=O)C(=O)N[C@@H](CCCNC(=N)N)C(=O)N[C@@H](CCCNC(=N)N)C(=O)N[C@@H](CCCCN)C(=O)N[C@@H](CCCCN)C(=O)N[C@@H](CC(N)=O)C(=O)N[C@@H](CCCNC(=N)N)C(=O)NCC(=O)N1CCC[C@H]1C(=O)N[C@@H](CCCCN)C(=O)NCC(=O)N1CCC[C@H]1C(=O)NCCCCCC(=O)N[C@@H](CCCCN)C(=O)N[C@@H](Cc1c[nH]cn1)C(=O)N[C@@H](Cc1c[nH]c2ccccc12)C(=O)N[C@H](C(=O)N[C@H](C(N)=O)[C@@H](C)O)[C@@H](C)O)C(C)C)[C@@H](C)O (stereo partly shown) [MACH 2] | no cytotoxicity | 27
2 | CC[C@H](C)[C@H](NC(=O)[C@H](CO)NC(=O)[C@H](CC(C)C)NC(=O)[C@H](CCCCN)NC(=O)CNC(=O)[C@H](CCCCN)NC(=O)[C@@H]1CCCN1C(=O)[C@H](Cc1c[nH]c2ccccc12)NC(=O)[C@H](CC(N)=O)NC(=O)[C@H](CCCCN)NC(=O)[C@H](CCCCN)NC(=O)[C@H](CC(N)=O)NC(=O)[C@H](C)NC(=O)[C@H](CCCCN)NC(=O)[C@H](CO)NC(=O)[C@H](CCCCN)NC(=O)[C@H](CCCNC(=N)N)NC(=O)[C@H](CCCCN)NC(=O)[C@H](CCCCN)NC(=O)[C@H](CCC(N)=O)NC(=O)CCCCn1nnc2c1-c1ccccc1N(C(=O)CCCCC(=O)N1C[C@@H](COP(=O)(N(C)C)N3C[C@@H](COP(=O)(N(C)C)N4C[C@@H](COP(=O)(N(C)C)N5C[C@@H](COP(=O)(N(C)C)N6C[C@@H](COP(=O)(N(C)C)N7C[C@@H](COP(=O)(N(C)C)N8C[C@@H](COP(=O)(N(C)C)N9C[C@@H](COP(=O)(N(C)C)N%10C[C@@H](COP(=O)(N(C)C)N%11C[C@@H](COP(=O)(N(C)C)N%12C[C@@H](COP(=O)(N(C)C)N%13C[C@@H](COP(=O)(N(C)C)N%14C[C@@H](COP(=O)(N(C)C)N%15C[C@@H](COP(=O)(N(C)C)N%16C[C@@H](COP(=O)(N(C)C)N%17C[C@@H](COP(=O)(N(C)C)N%18C[C@@H](COP(=O)(N(C)C)N%19C[C@@H](COP(=O)(N(C)C)N%20CCN(C(=O)OCCOCCOCCO)CC%20)O[C@@H](n%20cnc%21c(=O)[nH]c(N)nc%21%20)C%19)O[C@@H](n%19ccc(N)nc%19=O)C%18)O[C@@H](n%18cc(C)c(=O)[nH]c%18=O)C%17)O[C@@H](n%17cnc%18c(N)ncnc%18%17)C%16)O[C@@H](n%16cc(C)c(=O)[nH]c%16=O)C%15)O[C@@H](n%15cc(C)c(=O)[nH]c%15=O)C%14)O[C@@H](n%14cnc%15c(N)ncnc%15%14)C%13)O[C@@H](n%13ccc(N)nc%13=O)C%12)O[C@@H](n%12ccc(N)nc%12=O)C%11)O[C@@H](n%11cc(C)c(=O)[nH]c%11=O)C%10)O[C@@H](n%10cc(C)c(=O)[nH]c%10=O)C9)O[C@@H](n9cnc%10c(N)ncnc%109)C8)O[C@@H](n8cnc9c(N)ncnc98)C7)O[C@@H](n7ccc(N)nc7=O)C6)O[C@@H](n6ccc(N)nc6=O)C5)O[C@@H](n5ccc(N)nc5=O)C4)O[C@@H](n4cnc5c(N)ncnc54)C3)O[C@@H](n3cnc4c(=O)[nH]c(N)nc43)C1)Cc1ccccc1-2)C(=O)N[C@@H](Cc1c[nH]cn1)C(=O)N[C@@H](C)C(=O)N[C@@H](CCCCN)C(=O)N[C@@H](CC(=O)O)C(=O)N[C@@H](Cc1ccc(O)cc1)C(=O)N[C@@H](CCCCN)C(=O)N[C@@H](CCC(N)=O)C(=O)NCC(=O)N1CCC[C@H]1C(=O)N[C@@H](CCCCN)C(=O)N[C@@H](C)C(=O)N[C@@H](CCCCN)C(=O)NCCCCCC(=O)N[C@@H](CCCNC(=N)N)C(=O)N[C@@H](CCCCN)C(=O)N[C@@H](CCC(N)=O)C(=O)N[C@@H](CCCNC(=N)N)C(=O)NCCCCCC(=O)N[C@@H](CCCNC(=N)N)C(N)=O (stereo partly shown) [MACH 3] | no cytotoxicity | 38
